Data published in US20250051437A1.

What was measured:
[1] = target: monkey (crab-eating macaque) CDH17 fused to moxGFP, overexpressed on HEK293T cells (monkey (crab-eating macaque)); test: KinExA, cell-based, HEK293T overexpressing monkey CDH17 fusion (FIG. 16)
[2] = target: monkey (crab-eating macaque) CDH17 fused to moxGFP, overexpressed on HEK293T cells (monkey (crab-eating macaque)); test: flow cytometry (BD C6), 1 µg antibody on HEK293T Macaque CDH17 moxGFP cells, labelled anti-human IgG Fc secondary antibody; same antibody on HEK293T Parental: 600.46
[3] = target: monkey (crab-eating macaque) CDH17 fused to moxGFP, overexpressed on HEK293T cells (monkey (crab-eating macaque)); test: KinExA, cell-based, HEK293T monkey CDH17mGFP mass population
[4] = target: monkey (crab-eating macaque) CDH17 fused to moxGFP, overexpressed on HEK293T cells (monkey (crab-eating macaque)); test: flow cytometry on HEK293T monkey CDH17mGFP mass population, 20 µg/ml
[5] = target: monkey (crab-eating macaque) CDH17 fused to moxGFP, overexpressed on HEK293T cells (monkey (crab-eating macaque)); test: flow cytometry (BD C6), 1 µg antibody on HEK293T Macaque CDH17 moxGFP cells, labelled anti-human IgG Fc secondary antibody; same antibody on HEK293T Parental: 593.57
[6] = target: monkey (crab-eating macaque) CDH17 fused to moxGFP, overexpressed on HEK293T cells (monkey (crab-eating macaque)); test: flow cytometry (BD C6), 1 µg antibody on HEK293T Macaque CDH17 moxGFP cells, labelled anti-human IgG Fc secondary antibody; same antibody on HEK293T Parental: 817.99

Kd [1]	FL4-H [2]	Kd [3]	Cross Reactivity by Flow [4]	FL4-H [5]	FL4-H [6]	Binder
< 1 nM	159000	0.336 nM	41300	–	–	humanized anti-CDH17 antibody 07-0663-h7 (antibody, human IgG1, kappa, V domains shown) VH: QVQLVQSGAEVKKPGSSVKISCKVSGYTFTDHTIHWMRQAPGQGLEWIGYIFPRDDIVVYAQKFQGRATLTADKSTSTAYMELSSLRSEDTAVYYCARPPYYYSRNFYFDYWGQGTTLTVSS VL: DIQMTQSPSSLSASVGDRVTITCRVSSIISSSKLHWYQQKPGKAPKPLIYGTSTLASGVPSRFSGSGSGTDYTLTISSLQPEDFATYYCQQWSNYPFTFGQGTKLEIKR
< 1 nM	–	0.657 nM	16900	145000	–	humanized anti-CDH17 antibody 07-0646-h7 (antibody, human IgG1, V domains shown) VH: QVQLVQSGAEVKKPGASVKMSCKASGYTFTSYNMHWVRQAPGQGLEWIGAIYPGNGDTSYAQKFQGRATLTVDTSTSTAYMELSSLRSEDTAVYYCARGRGRYFEYWGQGTTLTVSS VL: DIQLTQSPSSLSASVGDRVTMTCRASSSVSSSYLHWYQQKPGKAPKLLIYSTSNLASGVPSRFSGSGSGTDYTLTISSVQPEDFATYYCQQYDSSPSTFGQGTKLEIK
< 1 nM	–	0.946 nM	29800	–	182000	humanized anti-CDH17 antibody 07-0653-h43 (antibody, human IgG1, V domains shown) VH: QVQLVQSGAEVKKPGASVKVSCKASGYTFTDYYMNWVRQAPGQGLEWMGVIYPYSGGIGYAQKFQGRVTMTVDKSTSTAYMELSSLRSEDTAVYYCARGRGDYFGLFDFWGQGTTVTVSS VL: DIQLTQSPSSLSASVGDRVTITCRATSSLSYIHWYQQKPGKAPKPLIYEISKLASGVPSRFSGSGSGTDYTLTISSLQPEDFATYYCQQWNYPFTFGQGTKLEIK
